Data: patent publication US20170066831A1 (Janssen / Centocor, published 2017)

Tests used:
[1] = biological target: T1, mouse ST2L extracellular domain (mouse, UniProt P14719 28-326); assay: immunosorbent assay with ECL detection, human-mouse domain-swap constructs
T1 construct: also called mouse ST2L-ECD; muST2L-ECD
T1 sequence: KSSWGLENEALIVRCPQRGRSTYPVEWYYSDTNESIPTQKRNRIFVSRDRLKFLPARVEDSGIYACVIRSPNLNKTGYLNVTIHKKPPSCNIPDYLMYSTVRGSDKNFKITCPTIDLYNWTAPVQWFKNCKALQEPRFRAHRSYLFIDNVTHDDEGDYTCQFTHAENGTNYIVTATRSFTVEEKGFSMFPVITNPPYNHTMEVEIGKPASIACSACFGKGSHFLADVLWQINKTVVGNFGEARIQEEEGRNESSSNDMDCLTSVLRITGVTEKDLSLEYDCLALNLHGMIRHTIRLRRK
Experimental: (§1) Antibody binding to ST2L domain I, II and III was determined using standard capture ELISA assay using electrochemiluminescent detection format (Meso-Scale Discovery (MSD) technology). 10 μg/mL of each antibody was coated onto each well of an MSD HighBind plate (5 μL/well) for 2 hr at room temperature. […] The plate was covered with aluminum foil and incubated for 1 hr at room temperature with gentle shaking. The plate was then washed 3 times with HEPES wash buffer. MSD read buffer (150 μl) was added to each well, and the plate was then read using an MSD Sector Imager 6000.

[2] = biological target: T2, human ST2L extracellular domain with C-terminal His6 tag (human, UniProt Q01638 19-328); assay: as above
T2 construct: also called huST2L-ECD; ST2L-ECD
T2 sequence: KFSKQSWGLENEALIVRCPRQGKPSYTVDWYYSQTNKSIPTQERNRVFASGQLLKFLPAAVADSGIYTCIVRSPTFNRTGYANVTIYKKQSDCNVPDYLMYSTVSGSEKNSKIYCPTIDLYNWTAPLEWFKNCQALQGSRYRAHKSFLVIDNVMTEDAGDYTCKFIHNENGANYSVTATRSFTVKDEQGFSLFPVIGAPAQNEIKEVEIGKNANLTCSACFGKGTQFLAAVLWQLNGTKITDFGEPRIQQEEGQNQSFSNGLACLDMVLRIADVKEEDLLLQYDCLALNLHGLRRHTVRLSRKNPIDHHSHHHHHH
Experimental: as §1

binding result [1]: binds
binding result [2]: no binding
B1: CNTO3914 (antibody, mouse IgG1, V domains shown)
VH: EVQLVESGGGLLQPGRSLKLSCTASGFIFSHYGMAWVRQAPTKGLEWVSSIITDGTSTYYRDSVKGRFTISRDNAKNTQYLQMDSLRSEDTATYYCARQSDDYFDYWGQGVMVTVSS
VL: DVVLTQTPVSLSVTLGDQASISCKSSQSLEYSDGDSYLEWYLQKPGQSPQLLIYGVSNRFSGVPDRFIGSGSGTDFTLKISRVEPEDLGVYYCFQATHDPFTFGSGTKLEIK
notes: Rat hybridoma C1999 V regions cloned into mouse IgG1 background; also called C1999
